Publication PMC9805127

Substrate: O=C(O)C(=O)O
Assay: purified protein
Settings: pH 4.0 (authors' preferred pH; also measured at pH 3 and 5), 100 mM buffer, air-saturated, 25 °C, 0.025 μM HvOXO, 0.125 μM PaDa-I as coupling enzyme

B1: HvOXO (Hordeum vulgare) (protein)
chain: SDPDPLQDFCVADLDGKAVSVNGHTCKPMSEAGDDFLFSSKLTKAGNTSTPNGSAVTELDVAEWPGTNTLGVSMNRVDFAPGGTNPPHIHPRATEIGMVMKGELLVGILGSLDSGNKLYSRVVRAGETFVIPRGLMHFQFNVGKTEAYMVVSFNSQNPGIVFVPLTLFGSDPPIPTPVLTKALRVEAGVVELLKSKFAGGS
  Km: 730 ± 90 µM
  kcat: 1.52 s⁻¹
  kcat/Km: 2080 M⁻¹ s⁻¹
